We go through 41 variants from the RNAGym collection of RNA variant scans (doi:10.7554/elife.90254).

B1: OR4K15 (parent)
chain: GUUAACGGUCAUAGGCCAUGGAAACUAGGAGCACCAUUUCGCUGCCAGUGAAGAAAUGAACAAAGAAAAUCUGGGCCAGGCAGGCAUCAAAAGAAAUAGUCUUGCGCUCAACCAGAAAGUCUGUAAUCAUUUUAAGGGUA

Variants of B1 are the subject of this data set. Description: self-cleavage, relative activity (ratio to wild type); higher = more cleavage; in vitro, sequencing; the parent is a self-cleaving ribozyme.
On to GUUAACGGUCAUAGGCCAUGGAAACUAGGAGCACCAUUUCGCUGCAAGUGAAGAAAUGAACAAAGAAAAUCUGGGCCGGGCAGGCAUCAAAAGAAAUAGUCUUGCGCUCAACCAGAAAGUCUGUAAUCAUUUUAAGGGUA [C46A A78G], for which the self-cleavage was found to be 0.17. Turning to GUUAACGGUCAUAGGCCAUGGAAACUAGGAGCACCAUUUCGCGGCCAGUGAAGAAAUGAACAAAGAAAAUCUGGGCCAGGCAGGCAUCAGAAGAAAUAGUCUUGCGCUCAACCAGAAAGUCUGUAAUCAUUUUAAGGGUA [U43G A90G], the self-cleavage came out at 0.51. Under GUUAACGGUCAUAGGCCAUGGAAACUAGGAGCACCAUUUCGCUGCCCGUGAAGAAAUGAACAAAGAAAAUCUGGGCCAAGCAGGCAUCAAAAGAAAUAGUCUUGCGCUCAACCAGAAAGUCUGUAAUCAUUUUAAGGGUA [A47C G79A] stands 0.14; under GUUAACGGUCAUAGGCCAUGGAAACUAGGAGCACCAUUUCGCUGCUAGUGAAGAAAUGAACAAAGAAAAUCUGGGCCAGGCAGGCAUCAAAAGAAAUAGUCUUGCGCUCAGCCAGAAAGUCUGUAAUCAUUUUAAGGGUA [C46U A111G], 0.02; under GUUAACGGUCAUAGGCCAUGGAAACUAGGAGCACCAUUUCGCUGCCAGUGAAGAAAUGAACAAAGAAAAUCUGGGCCAGGCAGGCAUCAAAAGAAAUGGUCUCGCGCUCAACCAGAAAGUCUGUAAUCAUUUUAAGGGUA [A98G U103C], 0.05. As for GUCAACGGUCAUAGGCCAUGGAAACUAGGAGCACCAUUUCGCUGCCAGUGAAGAAAUGAACAAAGAAAAUCUGGGCCAGGCAGGCAUCUAAAGAAAUAGUCUUGCGCUCAACCAGAAAGUCUGUAAUCAUUUUAAGGGUA [U3C A89U], the self-cleavage turned out to be 0.54. Take GUUAACGGUCAUAGGCCAUGGAAACUAGGAGCACCAUUUCGCUGCCAGUGAAGAAAUGAACAAAGAAAAUCUGGGCCAGGCAGGCAUCUAAAGAAAUAGUCUUGCGCUCAACCAGAAAGUCAGUAAUCAUUUUAAGGGUA [A89U U122A]: the self-cleavage was 0.6.

For the variant GUUAACGGGCAUAGGCCAUGGAAACUAGGAGCACCAUUUCGCUGCCAGUGAAGAAAUGAACAAAGAAAAUCUGGGCCAGGCAGGCAUCAAAAGAAAUAGUCUUGCGCUCAACCAGAAAGUCUGUAAUCGUUUUAAGGGUA [U9G A129G], the self-cleavage is 0.65. Under GUUAACGGUCAUAGGCCAUGGUAACUAGGAGCACCAUUUCGCUGCCAGUGAAGUAAUGAACAAAGAAAAUCUGGGCCAGGCAGGCAUCAAAAGAAAUAGUCUUGCGCUCAACCAGAAAGUCUGUAAUCAUUUUAAGGGUA [A22U A54U] stands 1.56; under GUUAACGGUCAUAGGCCAUGGAAACUAGGAGCACCAUUUCGCUGCCAGCGAAGAAAUGAACAAAGAAAAUCUGGGCCAGGCAGGCAUCAAAAGAAAUAGUCUUGCGCUCAACCUGAAAGUCUGUAAUCAUUUUAAGGGUA [U49C A114U], 0.12. Under GUUAACGGACAUAGGCCAUGGAAACUAGGAGCACCAUUUCGCUGCCAGUGAAGAAAUGAACAAAGAAAAUCUGGGCCAGGCAGGCAUCAAAAGAAAUAGUCUUGCGCUCAACCAAAAAGUCUGUAAUCAUUUUAAGGGUA [U9A G115A] stands 0.23.

Take GUUAACGGUCAUAGGCCAUGGAAACUAGGAGCACCAUUUCGCUGCCAGUGAAGAAAUGAACAAAGAAAAUCUGGGCCAGGCAGGCAUCAAAAGAAAUAGUCUUGCGCUCAACCAGAAAGCCUGUAAUCAUUUUAAGGGUG [U120C A140G]: the self-cleavage was found to be 1.07.

For GUUAACGGUCAUAGGCCAUGGAAACUAGGAGCACCAUUUCGCUGCCAGUGAAGAAAUGAACAAAGAAAGUCUGGGCCAGGCAGGCAUCAAAAGAAAUAGUCUUGCGCUCAACCAGAAAGUCUGUAACCAUUUUAAGGGUA [A69G U127C], the self-cleavage is 0.82. Turning to GUUAACGGUCAUAGGCCAUGGAAACUAGGAGCACCAUUUCGCUGCCAGUGAAGAAAUGAACAAAGAAAAUCUAGGCCAGGCAGGCAUUAAAAGAAAUAGUCUUGCGCUCAACCAGAAAGUCUGUAAUCAUUUUAAGGGUA [G73A C88U], the self-cleavage is 0.17. The result for GUUAACGGUCAUAGGCCAUGGAAACUAGGAGCACCAUAUCGCUGCCAGUGAAGAAAUGAACAAAGAAAAUCUGGGCCAGGCAGGCAUCAAAAGAAAUAGUCUUGCGCUCAACCAGAAAGUCUGUAAUCAUUUUAGGGGUA [U38A A135G] reads 2.17; that for GUUAACGGUCAUAGGCCAUGGAAACUAGGAGCACCAUUUCGCUGCCAGUGAAGAAAUGAACAAAGAAAAUCUGGGCCAGGCAGGCAUCAAAAGAAAUAGUCAUGCGCUCAACCAGAAAGUCAGUAAUCAUUUUAAGGGUA [U102A U122A], 1.28.

As for GUUAACGGUCAUAGGCCAAGGAAACUAGGAGCACCAUUUCGCUGCCAGUGAAGAAAUGAACAAGGAAAAUCUGGGCCAGGCAGGCAUCAAAAGAAAUAGUCUUGCGCUCAACCAGAAAGUCUGUAAUCAUUUUAAGGGUA [U19A A64G], the self-cleavage worked out at 1.03. Take GUUAACGGUCAUAGGCCAUGGAAACUAGGAGCACCAUUUCGCUGCCAGUGAAGAAAUGAACAAAGAAAAUCUGGGCCAGGCAGGCAUCAAAAGAAAUAGUCUUGCGCACAACCAGAAAGUCUGUAAACAUUUUAAGGGUA [U108A U127A]: the self-cleavage was determined as 0.03. Under GUUAACGGUCAUAGGCCAUGGAAACUAGGAGCACCAUUUCGCUGCCAGUGAAGAAAUGAACAAAGAAAAUCUAGGCCGGGCAGGCAUCAAAAGAAAUAGUCUUGCGCUCAACCAGAAAGUCUGUAAUCAUUUUAAGGGUA [G73A A78G] stands 0.21; under GUUAACGGUCAUAGGCCAUGGAAUCUAGGAGCACCAUUUCGCUGCCAGUGAAGAAAUGAACAAAGAAAAUCUGGGCCAGGCAGGCAUCGAAAGAAAUAGUCUUGCGCUCAACCAGAAAGUCUGUAAUCAUUUUAAGGGUA [A24U A89G], 0.56; under GUUAACGGUCAUAGGCCAUGGAAACUAGGAGCACCAUUUCGCUGCCAGUGAAGAAAUGAACAAAGAAAAUCUGGGCCAGGCAGGCAUCAAAAGAAAUAGUUUUGCGCUCAACCAGAAAGACUGUAAUCAUUUUAAGGGUA [C101U U120A], 0.4. For the variant GUUAACGGUCAUAGGCCAUGGAAACUAGGAGCACCAUUUCGCUGCCAGUGAAGAAAUGAACAUAGAAAAUCUGGGCCAGGCAGGCAUCAAAAGAAGUAGUCUUGCGCUCAACCAGAAAGUCUGUAAUCAUUUUAAGGGUA [A63U A96G], the self-cleavage was found to be 1.74. Take GUUAACGGUCAUAGGCCAUGGAAACUAGGAGCACCAUUUCGCUGCCAGUGAAGAAAUGAACAAAGAAAAUCUGGGCCAGGCAGGCAUCAAAAGAAAUAGUCUUGCGCUCAACCAGAAAGUCUGAAGUCAUUUUAAGGGUA [U124A A126G]: the self-cleavage turned out to be 0.76. In the case of GUUAACGGUCAUAGGCCAUGGAAACUAGGAGCACCAUUUCGCUGCCAGUGAAGAAAUGAACAAAGAAGAUCUGGGCAAGGCAGGCAUCAAAAGAAAUAGUCUUGCGCUCAACCAGAAAGUCUGUAAUCAUUUUAAGGGUA [A68G C77A], the self-cleavage was 0.54.

Consider GUUAACGGUCAUAGGCCAUGGAAACUAGGAGCACCAUUUCACUGCCAGUGAAGAAAUGAACAAAGAAAAUCUGGGCCAGGCAGGCAUCAAAAGAAAUAGCCUUGCGCUCAACCAGAAAGUCUGUAAUCAUUUUAAGGGUA [G41A U100C], for which the self-cleavage is 1.52. Under GUUAACGGACAUAGGCCAUGGAAACUAGGAGCACCAUUUCGCUGCCAGUGAAGAAGUGAACAAAGAAAAUCUGGGCCAGGCAGGCAUCAAAAGAAAUAGUCUUGCGCUCAACCAGAAAGUCUGUAAUCAUUUUAAGGGUA [U9A A56G] stands 1.3; under GUUAACGGUCAUAGGCCAUGGAAACUAGGAGCACCAUUUCGCUGCCAGUGAAGAAGUGAACAAAGAAAAUCUGGGCCAGGCAGGCAUCACAAGAAAUAGUCUUGCGCUCAACCAGAAAGUCUGUAAUCAUUUUAAGGGUA [A56G A90C], 0.21; under GUUAACGGUCAUAGGCCAUGGAAACUAGGAGCUCCAUUUCGCUGCCAGUGAAGAAAUGAACAAAGAAAAUCUGGGCCAGGCAGGCAUCGAAAGAAAUAGUCUUGCGCUCAACCAGAAAGUCUGUAAUCAUUUUAAGGGUA [A33U A89G], 1.46. The result for GUUAACGGUCAUAGGCCAUGGAAACUAGGAGCACCAUUUCGCUGCCAGUGAAGAAAUGAACAAAGAAAAUCUGGGCCAGGCAGGCAUCAAAAGAAAUAGCCUUGUGCUCAACCAGAAAGUCUGUAAUCAUUUUAAGGGUA [U100C C105U] reads 0.33; that for GUUAACGGUCAUAGGCCAUGGAAACUAGGAGCACCAUUUCGCUGCCAGUGAAGAAAUGAACAAAGAAAAUCUGGGCCAGGCAGGCAUCAAAAGAAAUAGUCUUGCGCUCAACCAGAAAGUCUGGAAUCCUUUUAAGGGUA [U124G A129C], 0.33; that for GUUAACGGUCAUAGGCCAUGGAAACUAGGAGCACCAUUUCGCUGCCAGUGAAGAAAUGAACGAAGAAAAUCUGGGCCAGGCAGGCAUCAAAAGAAAUAGUCUUGCGCUCAACCAGAAAGUCUGUAAUCAUUUUGAGGGUA [A62G A134G], 1.72. Under GUUAACGGUCAUAGGCCAUGGAAACUAGGAGCACCACUUCGCUGCCAGUGAAGAAAUGACCAAAGAAAAUCUGGGCCAGGCAGGCAUCAAAAGAAAUAGUCUUGCGCUCAACCAGAAAGUCUGUAAUCAUUUUAAGGGUA [U37C A60C] stands 1.44; under GUUAACGGUCAUAGGCCAUGGAGACUAGGAGCACCAUUUCGCUGCCAGUGAAGAAAUGAACAAAGAAAAUCUGGGCCAGGCAGGCAUCUAAAGAAAUAGUCUUGCGCUCAACCAGAAAGUCUGUAAUCAUUUUAAGGGUA [A23G A89U], 0.72. Turning to GAUAACGGUCAUAGGCCAUGGAAACUAGGAGCACCAUUUCGCUGCCAGUGAAGAAAUGAACAAAGAAAAUCUGGGCCAGGCAGGCAUCAAAAGAAGUAGUCUUGCGCUCAACCAGAAAGUCUGUAAUCAUUUUAAGGGUA [U2A A96G], the self-cleavage stood at 1.05. With GUUAACGGUCAUAGGCCAUGGAAACUAGGAGCACCAUUUCGCUGCCAGUGAAGAAACGAACAAAGAAAAUCUGGGCCAGGCAGGCAUCAAAAGAAAUAGUCUUGCGCACAACCAGAAAGUCUGUAAUCAUUUUAAGGGUA [U57C U108A], the self-cleavage stood at 0.02. Consider GUUAACGGUCAUAGGCCAUGGAAACUAGGAGCACCAUUUCGCCGCCAGUGAAGAAAUGAACAAAGAAAAUCUGGGCCAGGCAGGCAUCAAAAGAAAUAGACUUGCGCUCAACCAGAAAGUCUGUAAUCAUUUUAAGGGUA [U43C U100A], for which the self-cleavage worked out at 0.67. Under GUUAACGGUCAUAGGCCAUGGAAACUAGGAGCACCAUUUCGCUGCCAGUGAAGAAAUGAACAAAGAAAAUCUGGGCCAGGCAGGCAUCAUAAGAAAUAGUCUUGCGCCCAACCAGAAAGUCUGUAAUCAUUUUAAGGGUA [A90U U108C] stands 0.01; under GUUAACGGUCGUAGGCCAUGGAAACUAGGAGCACCAUUUCGCUGCCAGUGAAGAAAUGAACAAAGAAAAUCUGGGCCAGGCAAGCAUCAAAAGAAAUAGUCUUGCGCUCAACCAGAAAGUCUGUAAUCAUUUUAAGGGUA [A11G G83A], 1.23; under GUUAACGGUCAUAGGCCAUGGAAACUAGGAGCGCCAUUUCGCUGCCAGUGAAGAAAUGAACAAAGAAAAACUGGGCCAGGCAGGCAUCAAAAGAAAUAGUCUUGCGCUCAACCAGAAAGUCUGUAAUCAUUUUAAGGGUA [A33G U70A], 0.5. In the case of GUUAACGGUCAUAGGCCAUGGAAACUAGGAGCACCAUUUCGCUGCCAGUGAAGAAAUGAACAAAGAAAAUCUGGGCCAGGCAGGCAUCAGAAGAAAUAGUCUUGCGCUCAACCAGAAAGUCUGUAAUCAUUUUACGGGUA [A90G A135C], the self-cleavage stood at 0.91.

With GUUAACGGUCAUAGGCCAUGGAAACUAGGAGCACCAUUUCGCUGCCAGUGAAGAAAUGAACAAGGAAAAUCUGGGCCAGGCAGGCAUCAAAAGAAAUAGUCCUGCGCUCAACCAGAAAGUCUGUAAUCAUUUUAAGGGUA [A64G U102C], the self-cleavage was 2.06.
